Assay results: patent publication US20220112236A1

Assays:
[1] = target: Polyclonal human IgG Gammanorm (human); experiment: affinity chromatography column, IgG binding capacity after 24 h in 0.5 M NaOH at room temperature relative to before incubation
[2] = target: Polyclonal human IgG Gammanorm (human); experiment: affinity chromatography, commercial resin packed in column, polyclonal human IgG (Gammanorm) applied, DBC at 6 min residence time

Remaining binding capacity after 24h 0.5M NaOH incubation [1]: 75.2%
Dynamic binding capacity at 6 min residence time [2]: 41.8 mg/mL
Substance: MabSelect SuRe
